± gives the standard deviation of the averaged measurements.
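Also: PSI is a weighted mean of sequencing reads over stability bins, variants kept only with over 10 reads, mCherry proximal and sfGFP distal, peptide attached via GGGS linker.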

The test system of the data set is Saccharomyces cerevisiae. In words: protein stability index of tFT-peptide fusion (C-terminal peptide) (PSI (0-1 scale)); higher = more stable (slower turnover). As to conditions: genetic background: wild type; temperature: 30 C. The method, then:
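Multiplexed protein stability (MPS) profiling in S. cerevisiae. Random 12-aa peptides (tFT-X12 library) are fused to the C-terminus of a sfGFP-mCherry tandem fluorescent timer, after mCherry and a GGGS linker. Cells are FACS-sorted into 8 mCherry/sfGFP bins and deep-sequenced. The protein stability index (PSI) is the read-weighted bin average, scaled from 0 (unstable) to 1 (stable). Only peptides with >10 reads are reported; cells were grown at 30 °C in SC-His with glucose.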
Take GRGFGFDITISS: the protein stability index stood at 0.712 ± 0.098.

For the sequence GRGGIGDGGPVW, the protein stability index amounted to 0.6395 ± 0.00092.

GRGGYGKESLYC registered a protein stability index of 0.627 ± 0.031. Under GRGRFMPRDWYW stands 0.708 ± 0.028; under GRGSGIAMGVWV, 0.801 ± 0.19.

GRGVQWRAVGWE came in with a protein stability index of 0.748 ± 0.041.

Consider GRGVVGLWVSGT, for which the protein stability index stood at 0.699 ± 0.021. As to GRGWGWALGWCG, the protein stability index amounted to 0.698 ± 0.0095. GRIMRVPNENLT displayed a protein stability index of 0.696 ± 0.22. Consider GRKGVIAELIKI, for which the protein stability index worked out at 0.659 ± 0.11.

With GRKTRSPFLVLM, the protein stability index turned out to be 0.5707 ± 0.002. GRLRLDAAGCMW had a protein stability index of 0.675 ± 0.048.

GRNCGHSCANRP: the protein stability index came out at 0.696 ± 0.027. In the case of GRPFCLGVKMFL, the protein stability index was determined as 0.673 ± 0.035. GRPGPSSPFLLP had a protein stability index of 0.702 ± 0.052. In the case of GRQKIESSEAQT, the protein stability index was 0.666 ± 0.022. The result for GRRAGGTGAPSR reads 0.642 ± 0.016; that for GRRDVTFGTAFF, 0.753 ± 0.052. As for GRRGGRLSWAPG, the protein stability index was determined as 0.659 ± 0.017. GRRHNPRTSSAQ returned a protein stability index of 0.756 ± 0.075. Turning to GRRLVHKVDWSL, the protein stability index stood at 0.666 ± 0.043. As for GRRNVGLKNSGL, the protein stability index worked out at 0.645 ± 0.028.

Regarding GRRRGGAVVEGV, the protein stability index came to 0.678 ± 0.01. GRRVRAPADFKS gave a protein stability index of 0.587 ± 0.02.

With GRSMWFIEFGLG, the protein stability index amounted to 0.7578 ± 0.0057. Sequence GRSQGIWVSRGE displayed a protein stability index of 0.683 ± 0.028. Sequence GRTFPLATAPFL showed a protein stability index of 0.687 ± 0.085. Take GRVFRGRNGRCM: the protein stability index stood at 0.7443 ± 0.0067. Under GRWEGLRGLGVG stands 0.647 ± 0.012.

Regarding GRWRVLREVGAS, the protein stability index was determined as 0.664 ± 0.01. The sequence GRYLIGKNKRVI returned a protein stability index of 0.687 ± 0.011. GSAGSAVRNVVS registered a protein stability index of 0.647 ± 0.051. The result for GSANIDQEGVQY reads 0.781 ± 0.091; that for GSFPPPARARLS, 0.677 ± 0.025. Sequence GSFPRLPPSKSF registered a protein stability index of 0.724 ± 0.14.

GSFYGAVYVVPV: the protein stability index worked out at 0.669 ± 0.03. Under GSGDRSGCGWRG stands 0.678 ± 0.025. Sequence GSGELYMGRLVE showed a protein stability index of 0.676 ± 0.047. GSGTTGSLSYGV gave a protein stability index of 0.695 ± 0.02. In turn, GSIVVVGVVEGG came in with a protein stability index of 0.729 ± 0.066. GSIWGVGWGQGV came in with a protein stability index of 0.682 ± 0.11. Regarding GSLFVNRNCTVS, the protein stability index was found to be 0.697 ± 0.19. The sequence GSLPQLRAACRA had a protein stability index of 0.566 ± 0.023. For GSMRRSSVTLSA, the protein stability index amounted to 0.709 ± 0.065.

GSMTGYVRVGEG: the protein stability index stood at 0.57 ± 0.0064. For the sequence GSNMTQAMTAGG, the protein stability index stood at 0.656 ± 0.027. GSNQRRKGEHKP yielded a protein stability index of 0.623 ± 0.036. As to GSNQYLNNTYLI, the protein stability index is 0.64768 ± 0.00039. Sequence GSPSPLIALSRK returned a protein stability index of 0.689 ± 0.0073.

GSRGGVAYGRVG: the protein stability index was found to be 0.741 ± 0.04. GSRGHLGRGGPG showed a protein stability index of 0.727 ± 0.017. Sequence GSRSGPARTTGR displayed a protein stability index of 0.668 ± 0.024. As for GSRTHSMEDTTG, the protein stability index was 0.646 ± 0.0098. The result for GSSPPSARVRLF reads 0.763 ± 0.03. The result for GSSPVWRVAGAG reads 0.721 ± 0.061; that for GSSRRWPGGRTI, 0.671 ± 0.073; that for GSSVRGSLGREI, 0.711 ± 0.028.

GSVGFRTGRHLV displayed a protein stability index of 0.615 ± 0.063. GSVLFPLPFRPF displayed a protein stability index of 0.64 ± 0.11. Turning to GSVNGDTVGTQQ, the protein stability index amounted to 0.708 ± 0.013. For the sequence GSVSGCVGVMRG, the protein stability index is 0.641 ± 0.01. GSWRSFHVWYNS came in with a protein stability index of 0.571 ± 0.042. Turning to GTAFDGGELSEG, the protein stability index worked out at 0.739 ± 0.045. GTGSEGVALRSG: the protein stability index was determined as 0.6697 ± 0.001.

The values above are taken from the supplement of paper PMC10724198.
